Source: patent US20240343794A1 (UNITED KINGDOM RESEARCH AND INNOVATION, published 2024)

Molecular target: T1, human IL-25R (IL-17BR) on human ILCs/ILC2s from primary CRC samples (human, UniProt Q9NRM6 18-502)
T1 construct: Endogenous receptor on primary patient cells; also called interleukin-17 receptor B
T1 sequence: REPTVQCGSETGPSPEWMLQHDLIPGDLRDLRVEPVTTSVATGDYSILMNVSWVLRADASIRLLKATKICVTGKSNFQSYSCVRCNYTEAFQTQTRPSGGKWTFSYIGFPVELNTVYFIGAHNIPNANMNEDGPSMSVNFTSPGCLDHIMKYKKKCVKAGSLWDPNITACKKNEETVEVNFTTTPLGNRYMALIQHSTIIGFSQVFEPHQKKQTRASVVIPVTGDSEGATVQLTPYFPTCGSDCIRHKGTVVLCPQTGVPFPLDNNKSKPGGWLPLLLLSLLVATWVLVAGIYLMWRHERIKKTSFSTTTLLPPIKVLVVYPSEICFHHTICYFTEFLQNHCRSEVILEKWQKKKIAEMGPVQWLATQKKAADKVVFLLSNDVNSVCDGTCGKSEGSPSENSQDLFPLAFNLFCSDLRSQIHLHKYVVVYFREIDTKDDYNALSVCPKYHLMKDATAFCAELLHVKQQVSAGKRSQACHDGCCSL
Assay: Flow cytometry of a primary human CRC sample stained with biotinylated D9.2 plus streptavidin-BV421. Cells were pre-gated on Live CD45+, then Lin- CD4-, CD127+, and CRTH2+ for ILC2.
Description: Subsequently, samples were digested with 62.5 μg/mL Liberase TL (Roche) and 0.125 KU/mL DNase I (Sigma) in RPMI+2% FCS+10 mM HEPES at 37° C., shaking, for 45 minutes to collect lamina propria cells. After digestion, cells were passed through a 70 μm cell strainer and washed with PBS+2% FCS before antibody staining. Mesenteric lymph nodes were mechanically dissociated in RPMI, filtered through a 50 μm cell strainer, and washed with PBS+2% FCS before antibody staining. Fresh, surgically-resected human CRC and adjacent normal tissue were collected in sterile PBS and transported on ice before sample processing. Samples were mechanically dissociated into small pieces and digested with 100 μg/mL Liberase TM (Roche) and 0.2 KU/mL DNase I (Sigma) in RPMI, and incubated at 37° C. for 30 minutes. Subsequently, cells were filtered through a 70 μm cell strainer and washed with PBS+2% FCS before antibody staining for flow cytometry.
For surface staining, single cell suspensions were 333 blocked with anti-CD16/32 antibody (Fc block, clone 2.4G2) and Human TruStain FcX (Biolegend, 422302) for mouse and human samples in PBS+2% FCS respectively, and incubated with fluorochrome-conjugated or biotinylated antibodies on ice for 30 minutes in the dark. If necessary, samples were then incubated with fluorochrome-conjugated streptavidin on ice for a further 30 minutes.

binding result: binds
B1: anti-IL25R monoclonal antibody (clone D9.2) (antibody, V domains shown)
VH: QVQLQQPGAELVRPGASVKLSCKTSGYTFISYWMNWVKQGPEQGLEWIGRIDPYDSEIQYNQKFKDKAILTVDKSSSAAYMQLISLTSEDSAVYYCARSGGFDWFAYWGQGTLVTVSA
VL: DIQMTQSPASLSVSVGETVTITCRASENINSNLAWYQQKKGKSPQLLVYDVTNLADGVPSRFSGSGSGTQYSLKINSLQSEDFGSYYCQHFWRPPYTFGGGTNLEIK
notes: Murine antibody; also called IL17BR (D9.2, AF647); IL17BR (D9.2, biotin)
